B1: one-armed (OA) mAb01-9696 (antibody, V domains shown)
VH: EVQLVESGGGLVQPGRSLKLSCAASGFTFDDYAMHWVRQVPGKGLEWVSGISWRGDIGGYVDSVKGRFTISRDNAKNSLYLQLNSLRAEDTALYYCVKSYGSGSFYNAFDSWGQGTLVTVSS
VL: DIQMTQSPSTLSASAGDRVTITCRASQSISSWLAWYQQKPGKAPKFLIYKASRLDRGTPSRFSGSGSGTEFSLTISSLQPDDFATYYCLEYSSYIRTFGQGTKVEIK
B2: one-armed (OA) mAb11-1344 (antibody, V domains shown)
VH: EVQLVESGGGLVQPGRSLKLSCAASGFTFDDYAMHWVRQVPGKGLEWVSGISWKGDIGGYVDSVKGRFTISRDNAKNSLYLQLNSLRAEDTALYYCAKSYGSGSFYNAFDSWGQGTLVTVSS
VL: DIQMTQSPSTLSASAGDRVTITCRASQSISSWLAWYQQKPGKAPKFLIYKASKLDRGTPSRFSGSGSGTEFSLTISSLQPDDFATYYCLEYSSYIRTFGQGTKVEIK
B3: one-armed (OA) mAb11-1273 (antibody, V domains shown)
VH: EVQLVESGGGLVQPGRSLRLSCAASGFTFHDYAMHWVRQVPGKGLEWVSGISWKGDIGGYVDSVKGRFTISRDNEKNSLYLQMNSLRAEDTALYYCVKSYGSGSFYNAFDSWGQGTLVTVSS
VL: DIQMTQSPSTLSASVGDRVTITCRASQSISSWLAWYQQKPGKAPKFLIYKASRLDRGTPSRFSGSGSGTEFSLTISELQPDDFATYYCLEYSSYIRTFGQGTKVEIK
B4: one-armed (OA) mAb11-1286 (antibody, V domains shown)
VH: EVQLVESGGGLVQPGRSLRLSCAASGFTFHDYAMHWVRQVPGKGLEWVSGISWKGDIGGYVDSVKGRFTISRDNEKNSLYLQMNSLRAEDTALYYCVKSYGSGSFYNAFDSWGQGTLVTVSS
VL: DIQMTQSPSTLSASVGDRVTITCRASQSISSWLAWYQQKPGKAPKFLIYKASRLDRGTPSRFSGSGSGTEFSLTIYDLQPDDFATYYCLEYRSYIRTFGQGTKVEIK
B5: one-armed (OA) mAb11-1288 (antibody, V domains shown)
VH: EVQLVESGGGLVQPGRSLRLSCAASGFTFHDYAMHWVRQVPGKGLEWVSGISWKGDIGGYVDSVKGRFTISRDNEKNSLYLQMNSLRAEDTALYYCVKSYGSGSFYNAFDSWGQGTLVTVSS
VL: DIQMTQSPSTLSASVGDRVTITCRASQSISSWLAWYQQKPGKAPKFLIYKASRLDRGTPQRFSGSGSGTEFSLTIYSLQPDDFATYYCLEYNSYIRTFGQGTKVEIK
B6: one-armed (OA) mAb11-1275 (antibody, V domains shown)
VH: EVQLVESGGGLVQPGRSLRLSCAASGFTFHDYAMHWVRQVPGKGLEWVSGISWKGDIGGYVDSVKGRFTISRDNEKNSLYLQMNSLRAEDTALYYCVKSYGSGSFYNAFDSWGQGTLVTVSS
VL: DIQMTQSPSTLSASVGDRVTITCRASQSISSWLAWYQQKPGKAPKFLIYKASRLDRGTPSRFSGSGSGTEFSLTISSLTPDDFATYYCLEYSSYIRTFGQGTKVEIK
B7: one-armed (OA) mAb11-1276 (antibody, V domains shown)
VH: EVQLVESGGGLVQPGRSLRLSCAASGFTFHDYAMHWVRQVPGKGLEWVSGISWKGDIGGYVDSVKGRFTISRDNEKNSLYLQMNSLRAEDTALYYCVKSYGSGSFYNAFDSWGQGTLVTVSS
VL: DIQMTQSPSTLSASVGDRVTITCRASQSISSWLAWYQQKPGKAPKFLIYKASRLDRGTPSRFSGSGSGTEFSLTISSLSPDDFATYYCLEYSSYIRTFGQGTKVEIK
B8: one-armed (OA) mAb01-9978 (antibody, V domains shown)
VH: EVQLVESGGGLVQPGRSLRLSCAASGFTFHDYAMHWVRQVPGKGLEWVSGISWKGDIGGYVDSVKGRFTISRDNEKNSLYLQMNSLRAEDTALYYCVKSYGSGSFYNAFDSWGQGTLVTVSS
VL: DIQMTQSPSTLSASVGDRVTITCRASQSISSWLAWYQQKPGKAPKLLIYKASRLERGTPSRFSGSGSGTEFSLTISSLQPDDFATYYCLEYSSYIRTFGQGTKVEIK
B9: one-armed (OA) mAb11-1501 (antibody, V domains shown)
VH: EVQLVESGGGLVQPGRSLRLSCAASGFTFDDYAMHWVRQVPGKGLEWVSGISWRGDIGGYVKSVKGRFTISRDNAKNSLYLQMNSLRAEDTALYYCVKSYGSGSFYNAFDSWGQGTLVTVSS
VL: DIQMTQSPSTLSASVGDRVTITCRASQSISSWLAWYQQKPGKAPKFLIYKASKLDRGTPSRFSGSGSGTEFTLTISSLQPDDFATYYCLEYSSYIRTFGQGTKVEIK
B10: one-armed (OA) mAb11-1389 (antibody, V domains shown)
VH: EVQLVESGGGLVQPGRSLKLSCAASGFTFHDYAMHWVRQAPGKGLEWVSGISWKGDIGGYVDSVKGRFTISRDNAKNSLYLQMNSLRAEDTALYYCAKSYGSGSFYNAFDSWGQGTLVTVSS
VL: DIQMTQSPSTLSASAGDRVTITCRASQSISSWLAWYQQKPGKAPKFLIYKASRLDRGTPSRFSGSGSGTEFSLTISSLQPDDFATYYCLEYSSYIRTFGQGTKVEIK
B11: one-armed (OA) mAb01-9933 (antibody, V domains shown)
VH: EVQLVESGGGLVQPGRSLKLSCAASGFTFDDYAMHWVRQVPGKGLEWVSGISWKGDIGGYVDSVKGRFTISRDNAKNSLYLQLNSLRAEDTALYYCAKSYGSGSFYNAFDSWGQGTLVTVSS
VL: DIQMTQSPSTLSASAGDEVTITCRASQSISSWLAWYQQKPGKAPKLLIYKASKLDRGVPSRFSGSGSGTEFSLTISDLQPDDFATYYCLEYSSYIRTFGQGTKVEIK
B12: one-armed (OA) mAb11-1499 (antibody, V domains shown)
VH: EVQLVESGGGLVQPGRSLRLSCAASGFTFHDYAMHWVRQVPGKGLEWVSGISWRGDIGGYVKSVKGRFTISRDNAKNSLYLQMNSLRAEDTALYYCVKSYGSGSFYNAFDSWGQGTLVTVSS
VL: DIQMTQSPSTLSASVGDRVTITCRASQSISSWLAWYQQKPGKAPKFLIYKASKLDRGTPSRFSGSGSGTEFTLTISSLQPDDFATYYCLEYSSYIRTFGQGTKVEIK
B13: one-armed (OA) mAb11-1360 (antibody, V domains shown)
VH: EVQLVESGGGLVQPGRSLKLSCAASGFTFDDYAMHWVRQVPGKGLEWVSGISWRGDIGGYVDSVKGRFTISRDNAKNSLYLQLNSLRAEDTALYYCVKSYGSGSFYNAFDSWGQGTLVTVSS
VL: DIQMTQSPSTLSASVGDRVTITCRASQSISSWLAWYQQKPGKAPKLLIYKASRLERGTPSRFSGSGSGTEFSLTISSLQPDDFATYYCLEYSSYIRTFGQGTKVEIK
B14: one-armed (OA) mAb11-1495 (antibody, V domains shown)
VH: EVQLVESGGGLVQPGRSLRLSCAASGFTFHDYAMHWVRQVPGKGLEWVSGISWRGDIGGYAKSVKGRFTISRDNAKNSLYLQMNSLRAEDTALYYCVKSYGSGSFYNAFDSWGQGTLVTVSS
VL: DIQMTQSPSTLSASVGDRVTITCRASQSISSWLAWYQQKPGKAPKFLIYKASKLDRGTPSRFSGSGSGTEFTLTISSLQPDDFATYYCLEYSSYIRTFGQGTKVEIK
B15: one-armed (OA) mAb01-9697 (antibody, V domains shown)
VH: EVQLVESGGGLVQPGRSLKLSCAASGFTFDDYAMHWVRQVPGKGLEWVSGISWRGDIGGYVDSVKGRFTISRDNAKNSLYLQLNSLRAEDTALYYCVKSYGSGSFYNAFDSWGQGTLVTVSS
VL: DIQMTQSPSTLSASVGDRVTITCRASQSISSWLAWYQQKPGKAPKFLIYKASRLERGTPSRFSGSGSGTEFSLTISSLQPDDFATYYCLEYSSYIRTFGQGTKVEIK
B16: one-armed (OA) mAb11-1502 (antibody, V domains shown)
VH: EVQLVESGGGLVQPGRSLRLSCAASGFTFDDYAMHWVRQVPGKGLEWVSGISWRGDIGGYVKSVKGRFTISRDNAKNSLYLQMNSLRAEDTALYYCVKSYGSGSFYNAFDSWGQGTLVTVSS
VL: DIQMTQSPSTLSASVGDRVTITCRASQSISSWLAWYQQKPGKAPKLLIYKASKLDRGTPSRFSGSGSGTEFTLTISSLQPDDFATYYCLEYSSYIRTFGQGTKVEIK
B17: one-armed (OA) mAb11-1282 (antibody, V domains shown)
VH: EVQLVESGGGLVQPGRSLRLSCAASGFTFHDYAMHWVRQVPGKGLEWVSGISWKGDIGGYVDSVKGRFTISRDNEKNSLYLQMNSLRAEDTALYYCVKSYGSGSFYNAFDSWGQGTLVTVSS
VL: DIQMTQSPSTLSASVGDRVTITCRASQSISSWLAWYQQKPGKAPKFLIYKASRLDRGTPSRFSGSGSGTEFSLTISSLQPDDFATYYCLEYSSWIRTFGQGTKVEIK
B18: one-armed (OA) mAb11-1278 (antibody, V domains shown)
VH: EVQLVESGGGLVQPGRSLRLSCAASGFTFHDYAMHWVRQVPGKGLEWVSGISWKGDIGGYVDSVKGRFTISRDNEKNSLYLQMNSLRAEDTALYYCVKSYGSGSFYNAFDSWGQGTLVTVSS
VL: DIQMTQSPSTLSASVGDRVTITCRASQSISSWLAWYQQKPGKAPKFLIYKASRLDRGTPSRFSGSGSGTEFSLTISSLQPDDFATYYCLEYQSYIRTFGQGTKVEIK
B19: one-armed (OA) mAb11-1358 (antibody, V domains shown)
VH: EVQLVESGGGLVQPGRSLKLSCAASGFTFDDYAMHWVRQVPGKGLEWVSGISWRGDIGGYVDSVKGRFTISRDNAKNSLYLQLNSLRAEDTALYYCVKSYGSGSFYNAFDSWGQGTLVTVSS
VL: DIQMTQSPSTLSASAGDRVTITCRASQSISSWLAWYQQKPGKAPKFLIYKASKLDRGTPSRFSGSGSGTEFSLTISSLQPDDFATYYCLEYSSYIRTFGQGTKVEIK
B20: one-armed (OA) mAb11-1279 (antibody, V domains shown)
VH: EVQLVESGGGLVQPGRSLRLSCAASGFTFHDYAMHWVRQVPGKGLEWVSGISWKGDIGGYVDSVKGRFTISRDNEKNSLYLQMNSLRAEDTALYYCVKSYGSGSFYNAFDSWGQGTLVTVSS
VL: DIQMTQSPSTLSASVGDRVTITCRASQSISSWLAWYQQKPGKAPKFLIYKASRLDRGTPSRFSGSGSGTEFSLTISSLQPDDFATYYCLEYKSYIRTFGQGTKVEIK

20 molecules from patent US20260193376A1 (Novo Nordisk, published 2026) can be followed below.

For the test, the target named is human plasma-derived Factor IXa (human, UniProt P00740 47-191; P00740 227-461). Kind of test: cell-based or functional assay.
Chain of human plasma-derived Factor IXa (P00740 47-191, chain 1 of 2): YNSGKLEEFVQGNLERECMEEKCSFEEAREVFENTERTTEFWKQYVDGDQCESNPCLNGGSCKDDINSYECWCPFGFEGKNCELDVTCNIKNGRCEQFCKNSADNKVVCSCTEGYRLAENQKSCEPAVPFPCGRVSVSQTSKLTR
Chain of human plasma-derived Factor IXa (P00740 227-461, chain 2 of 2): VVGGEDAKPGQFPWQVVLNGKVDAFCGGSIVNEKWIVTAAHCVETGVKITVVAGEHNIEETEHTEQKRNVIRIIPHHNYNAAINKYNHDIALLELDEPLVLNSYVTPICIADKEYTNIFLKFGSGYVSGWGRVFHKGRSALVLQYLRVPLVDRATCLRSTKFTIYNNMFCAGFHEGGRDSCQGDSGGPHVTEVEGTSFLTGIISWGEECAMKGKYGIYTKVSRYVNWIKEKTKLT
B1: the “Stimulation Index, FXa generation assay, 1600 nM OA antibody” value (“Stimulation Index … 1600 nM OA antibody” for short) was 5170 fold.
Consider B2, for which the “Stimulation Index, FXa generation assay, 800 nM OA antibody” value (from here on “Stimulation Index … 800 nM OA antibody”) turned out to be 4660 fold.
On the same count and under the same terms, to B3 belongs 1540 fold; to B4, 1820 fold; to B5, 2530 fold.
For B6, the “Stimulation Index … 800 nM OA antibody” value worked out at 1840 fold.
On the same count and under the same terms, the same measure for B7: 1740 fold.
For the molecule B8, the “Stimulation Index, FXa generation assay, 3600 nM OA antibody” value is 3670 fold.
For the molecule B9, the “Stimulation Index … 1600 nM OA antibody” value amounted to 10300 fold.
On to B10, for which the “Stimulation Index … 800 nM OA antibody” value was determined as 5790 fold.
As for B11, the “Stimulation Index, FXa generation assay, 3600 nM OA antibody” value came to 6440 fold.
In the case of B12, the “Stimulation Index … 1600 nM OA antibody” value worked out at 9010 fold.
On to B13, for which the “Stimulation Index … 800 nM OA antibody” value was 1110 fold.
With B14, the “Stimulation Index … 1600 nM OA antibody” value turned out to be 7690 fold.
With B15, the “Stimulation Index, FXa generation assay, 3200 nM OA antibody” value was 6540 fold.
Turning to B16, the “Stimulation Index … 1600 nM OA antibody” value was 5850 fold.
With B17, the “Stimulation Index … 800 nM OA antibody” value was 1460 fold.
Still for that read-out and setting: the same measure for B18: 1690 fold.
For B19, the “Stimulation Index … 800 nM OA antibody” value amounted to 2830 fold.
The same measure, in the same setting: the same measure for B20: 1560 fold.
